# Measured values as given in publication PMC12081870 (Communications Biology, 2025).
# Where a chain is given by its changes, count along the chain named. Numbers in names are those of the source. Where “and” joins values, the source holds several entries; their conditions need not be identical. Identical values can stand only once. Ends that are not written are not given here.
# T1: Sla1 SH3#1-2 tandem domains (aa 5-131) (S. cerevisiae, UniProt P32790 5-131, 15N-labelled (NMR only))
# T1 construct: Sla1, S. cerevisiae, first two SH3 domains (juxtaposed, no linker), residues 5-131; also called Sla1 SH3 domains 1 and 2; tandem SH3#1&2 domain; source: E. coli, purified (GST fusion, cleaved with Prescission protease; His-tagged Sla1-SH3 domains were also made); 15N- or 15N,13C-labelled for NMR
# T1 sequence (looked up): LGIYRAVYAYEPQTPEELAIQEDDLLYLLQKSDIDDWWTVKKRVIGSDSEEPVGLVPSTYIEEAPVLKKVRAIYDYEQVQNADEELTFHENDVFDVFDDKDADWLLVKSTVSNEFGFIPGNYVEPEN
# B1: GST-Sla1 SH3#1-3: GST-tagged Sla1 SH3#1-3 containing the predicted PH domain (protein, UniProt P32790 5-413, looked up, fragment)
# chain: LGIYRAVYAYEPQTPEELAIQEDDLLYLLQKSDIDDWWTVKKRVIGSDSEEPVGLVPSTYIEEAPVLKKVRAIYDYEQVQNADEELTFHENDVFDVFDDKDADWLLVKSTVSNEFGFIPGNYVEPENGSTSKQEQAPAAAEAPAATPAAAPASAAVLPTNFLPPPQHNDRARMMQSKEDQAPDEDEEGPPPAMPARPTATTETTDATAAAVRSRTRLSYSDNDNDDEEDDYYYNSNSNNVGNHEYNTEYHSWNVTEIEGRKKKKAKLSIGNNKINFIPQKGTPHEWSIDKLVSYDNEKKHMFLEFVDPYRSLELHTGNTTTCEEIMNIIGEYKGASRDPGLREVEMASKSKKRGIVQYDFMAESQDELTIKSGDKVYILDDKKSKDWWMCQLVDSGKSGLVPAQFIEPV
# modifications: GST tag
# notes: GST-tagged Sla1 SH3#1-3 containing the predicted PH domain
# B2: Sla1 SH3 1&2-W108A: W108A mutation prevents proline motif binding by SH3#2 but not SH3#1 (protein, UniProt P32790 5-131, looked up, variant W108A)
# chain: T1 sequence (looked up) with W104A
# B3: Las17 peptide p1 (PP1 motif) (peptide)
# peptide: RNNRPVPPPPPMRTTTEGSGVR
# notes: Las17, S. cerevisiae, first PP motif; also called peptide 1; source: synthetic peptide (GenScript Biotech, UK)
# B4: Las17 peptide p3 (PP3 motif) (peptide)
# peptide: LPAQTGRRGPAPPPPPRASRPTP
# notes: Las17, S. cerevisiae, third PP motif; also called peptide 3; source: synthetic peptide (GenScript Biotech, UK)
# B5: Sla1 SH3#3 (aa 354-413) (domain or fragment, S. cerevisiae, UniProt P32790 354-413, looked up)
# chain: SKKRGIVQYDFMAESQDELTIKSGDKVYILDDKKSKDWWMCQLVDSGKSGLVPAQFIEPV
# modifications: also: 15N-labelled
# notes: Sla1, S. cerevisiae, third SH3 domain, residues 354-413; also called Sla1 SH3 domain 3; source: E. coli, purified (GST fusion, GST removed with thrombin; His-tagged Sla1-SH3 domains were also made); 15N-labelled for NMR
# B6: Sla1 SH3#1 (aa 3-68) (domain or fragment, S. cerevisiae, UniProt P32790 3-68, looked up)
# chain: VFLGIYRAVYAYEPQTPEELAIQEDDLLYLLQKSDIDDWWTVKKRVIGSDSEEPVGLVPSTYIEEA
# notes: Sla1, S. cerevisiae, first SH3 domain, residues 3-68; also called Sla1 SH3 domain 1; source: E. coli, purified (GST fusion, GST removed with thrombin; His-tagged Sla1-SH3 domains were also made)
# B7: Sla1 SH3#1: Sla1 SH3#1 (aa 3-68) (protein)
# chain: B6 chain
# modifications: left off: GST, end not stated, kept
# Experiments:
# [1] = tested on: Las17-Arp2/3 mediated actin polymerisation; settings: 15 nM Las17, 1 µM Sla1 SH3 domains, ref [13]; cited from earlier work
# From the text: In Sla1 the first two SH3 domains are immediately juxtaposed with no linker. There are then 236 residues before the third SH3 domain (Fig. 1A).
# [2] = tested on: Las17 12mer peptides / GST-Sla1 SH3 domains; assay: Peptide spot array (Celluspot) of Las17 12mers probed with GST-Sla1 SH3 domains; assay type: binding, Saccharomyces cerevisiae; settings: GST-Sla1 SH3 domain on 12mer array, 2-residue offset, anti-GST HRP, chemiluminescence
# Description: A Purified individual GST-tagged Sla1 SH3 domains were used to probe a Celluspot array consisting of a series of 12 amino acid peptides starting with residue 181, and subsequent peptides starting at two amino acid intervals, up to amino acid 540. Binding of GST-Sla1 SH3 to the array was identified by further probing of HRP-tagged anti-GST and subsequent visualisation using chemiluminescence. […] Error bars are standard error of mean.
# They were incubated with GST fused SH3 domains of Sla1 or with GST alone, as described in ref.[57]. Membranes were probed with HRP tagged anti-GST, and the presence of SH3-GST fusion protein was detected with ECL chemiluminescent detection solution (Thermo Fisher Scientific).
# [3] = tested on: Las17-GFP and Arc15-mCherry; assay: Dual-reporter lifetimes, Las17-GFP and Arc15-mCherry co-localisation; assay type: cell-based, Saccharomyces cerevisiae; design: lifetime, GFP alone / lifetime, GFP and RFP / lifetime, RFP: unit not given here; settings: sheet Fig9E, individual endocytic patches, one per cell
# Description: A size bar for each set of kymographs is shown on the upper right of each set. For (A) and (C) size bar is 100 nm and for B is 200 nm. Error bars are standard deviation. […] The site of interest is labelled in the first two time panels with a white arrow. Exposure 0.5 sec with 1 second time lapse. 120 s recorded. […] Error bars are standard deviation.
# Individual spots were analysed for lifetimes and behaviours.
# Yeast strains used in this study are listed in Supplementary table 2 and plasmids used in Supplementary table 1. Unless stated otherwise, cells were grown with rotary shaking at 30 °C in liquid YPD medium (1% yeast extract, 2% Bacto-peptone, 2% glucose supplemented with 40 μg/ml adenine) or in synthetic medium (0.67% yeast nitrogen base, 2% glucose) with appropriate supplements. […] DNA cassettes carrying mutations for integration were transformed into KAY1801. Mutant colonies were counter-selected on minimal medium, containing 0.005% uracil and 0.1% 5’-Fluoroorotic Acid (5-FOA; Melford laboratories). Allele exchange, in growing Ura3^-, 5-FOA resistant colonies, was confirmed by PCR and sequencing.
# For live-cell imaging, cells expressing tagged proteins were visualised after growing to early log phase. Analysis was carried out at room temperature (22 °C). […] Images were taken simultaneously on separate scientific complementary metal oxide semiconductor (sCMOS) cameras (30 msec exposure). Seven 250 nm sections were acquired every 0.5 sec (241 time points). The stacks were then deconvolved and processed, using SoftWorx. Protein localisation and lifetime was analysed from those projections. Fiji software was used to assemble movies and kymographs, to track and record behaviour of individual spots. Graphs show mean ± SD. […] Where appropriate data was tested for normal distribution using Graphpad Prism software, and then subjected to the appropriate test as described in the methods for each experiment type.
# [4] = Liposome co-sedimentation assay; assay type: binding; design: unit: %
# Description: Liposome binding assays were carried out as described previously. To prepare liposomes 11 μl of a 25 mg/ml solution of Folch fraction-1 was dried under a nitrogen stream. They were washed in chloroform, dried under nitrogen, and further washed with diethyl ether to remove all traces of chloroform before being dried again. The dried lipid mixture was resuspended in 200 µl of buffer B (20 mM HEPES pH 7.2, 100 mM KCl, 2 mM MgCl2, 1 mM DTT) at 37 °C for 30 min with regular gentle agitation. Liposomes were then extruded 11 times through polycarbonate filters with 1.0 μm pores. For liposome binding assays 20 μM Sla1 (pre-spun at 313,000 × g for 15 min) was mixed with 20 μl liposomes in buffer B, (final volume 50 µl) and incubated at room temperature for 15 min. Liposomes and bound protein were pelleted by centrifugation at 250,000 × g for 15 min, and supernatants and pellets carefully separated. The pellets were resuspended in 50 µl buffer B and samples were analysed by SDS-PAGE. The proportion of protein in each sample was determined by densitometry of the Coomassie stained gels using a BioRad GelDoc. Replicate experiments were carried out with protein from different preparations. To normalise the data the amount of protein in the supernatant and pellet of each sample was added together to give a value for 100%, and then the % in either the supernatant or pellet alone was calculated. When liposomes were included in the pyrene actin assay they were prepared as described for liposome binding assays, but the dried lipid mixture was resuspended in 5×KME in place of liposome buffer. This was then used as a source of KME in the pyrene actin assay as well as a source of lipid. Mean ± SD is shown n = 6. Sîdák’s multiple comparisons test was carried out using Graphpad Prism software, **** denotes two tailed P value of < 0.0001.
# Liposome binding studies: triplicate experiments were carried out with protein from different preparations. To normalise the data the amount of protein in the supernatant and pellet of each sample was added together to give a value for 100%, and then the % in either the supernatant or pellet alone was calculated. Mean ± SD is shown n = 6. Sîdák’s multiple comparisons test was carried out using Graphpad Prism software, **** denotes two tailed P value of < 0.0001.
# [5] = biological target: Las17 PPR-N fragment (residues 300-422); assay: Biolayer Interferometry (BLI), Sla1 SH3 domains to Las17 PPR-N; assay type: binding, Saccharomyces cerevisiae; settings: Biolayer Interferometry, Octet R2, Las17 (aa 300-422); three repeats with newly prepared protein; read-out: binding affinity (Kd)
# From the text: To investigate binding characteristics of the SH3 domains further, Sla1 SH3 protein domains were purified. Three Sla1 SH3 single domains, tandem domains Sla1 SH3#1&2, Sla1 SH3#1&2 W108A (in which the W108A mutation prevents proline motif binding by SH3#2 but not SH3#1) and a fragment with all three SH3 domains were expressed recombinantly and purified. […] This outcome is in line with original research of Rodal and colleagues and with more recent studies of avidity developed by Williamson, which highlighted the importance of tandem binding SH3 domains[13],[27].
# Biolayer Interferometry (BLI) assays were performed using an OctetⓇ R2 (Sartorius). Protein samples were placed into the wells of a polystyrene plate (ProxiPlateTM, Perkin Elmer) and binding measured either with Octet NTA Biosensors or Octet GST Biosensors. Screening assays were performed to determine the optimum loading concentration and time for each binding pair to ensure that the probe was not saturated. All experiments were repeated three times, each time with newly prepared protein. Analysis and visualisation were performed using GraphPad Prism 10.0.2.
# [6] = biological target: T1, Sla1 SH3#1-2 tandem domains (aa 5-131); assay: NMR titration; 15N-labelled Sla1 SH3 domains, 1H-15N HSQC; concentrated peptide stocks in the same buffer and pH added stepwise (0 to 8 equivalents shown); shift changes fitted to the standard quadratic equation; settings: both partners purified
# [7] = biological target: T2, Las17 PPR-N fragment (residues 300-422), wild type (S. cerevisiae, UniProt Q12446 300-422); assay: BLI; Octet R2 (Sartorius); Octet NTA Biosensors or Octet GST Biosensors, which partner was loaded is not stated; repeated three times; the constant of SH3#1-3 is called apparent; settings: both partners purified
# T2 construct: Las17 (yeast WASP family protein, Las17/Bee1), S. cerevisiae, residues 300-422 (N-terminal half of the polyproline region, PPR-N); also called Las17(300-422); Las17 300-422; source: E. coli, purified (GST fusion on glutathione Sepharose, cleaved with PreScission Protease; a His-tagged form purified on a nickel column was also made)
molecule,measurement,setting,value
Sla1 SH3#3: SH3#3 (aa 354-413) (SKKRGIVQYDFMAESQDELTIKSGDKVYILDDKKSKDWWMCQLVDSGKSGLVPAQFIEPV; also: 15N-labelled),inhibition of actin polymerisation activity,[1],not
same,binding to Las17 peptide spots,[2],strongest binding for peptides in proline tracts 1 and 3
wt: wild type cells with Las17-GFP and Arc15-mCherry,"lifetime, GFP alone",[3],20 (3×) and 22 (4×) and 18 (2×) and 28 and 24 and 26 (2×)
same,"lifetime, GFP and RFP",[3],30 and 44 and 36 and 32 (4×)
same,"lifetime, RFP",[3],34 and 48 and 44 and 36 (3×) and 46
B1,liposome co-sedimentation,"[4]; 20 μM Sla1, buffer B, room temperature 15 min, 250,000 × g",co-precipitates with liposomes
same,liposome co-sedimentation,"[4]; - lipid, replicate 1",0
same,liposome co-sedimentation,"[4]; - lipid, replicate 2",11.5044
same,liposome co-sedimentation,"[4]; - lipid, replicate 3",0
same,liposome co-sedimentation,"[4]; - lipid, replicate 4",2.9
same,liposome co-sedimentation,"[4]; - lipid, replicate 5",3
same,liposome co-sedimentation,"[4]; - lipid, replicate 6",5
B2,Kd,[5],7.4 µM
B3,Kd at site SH3#1,[6],~70 µM
same,Kd at site SH3#2,[6],~550 µM
B4,Kd at site SH3#1,[6],~24 µM
same,Kd at site SH3#2,[6],~190 µM
B5,Kd,[7],16 µM
B6,Kd,[7],7.5 µM
B7,inhibition of actin polymerisation activity,[1],about 80%
same,binding to Las17 peptide spots,[2],preference for sequences in the Las17 proline tracts 2 and 3
